Assay results: US20220332816A1 (SINGLE CELL TECHNOLOGY, published 2022)
Residue numbers refer to the chain shown, from its start.

T1: TIGIT on the engineered cell lines of the TIGIT/CD155 Blockade Bioassay (J2201, Promega) (UniProt Q495A1 22-244, limits assumed)
T1 sequence (looked up): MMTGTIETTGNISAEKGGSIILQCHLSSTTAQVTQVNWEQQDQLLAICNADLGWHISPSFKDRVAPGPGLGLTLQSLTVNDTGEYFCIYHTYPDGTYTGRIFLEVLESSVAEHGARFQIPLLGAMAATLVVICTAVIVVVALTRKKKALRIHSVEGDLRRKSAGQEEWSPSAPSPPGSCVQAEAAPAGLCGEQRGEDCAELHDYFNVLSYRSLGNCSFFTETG

T2: Recombinant human TIGIT (human, UniProt Q495A1 22-141, limits assumed)
T2 construct: also called T cell immunoreceptor with Ig and ITIM domains
T2 sequence: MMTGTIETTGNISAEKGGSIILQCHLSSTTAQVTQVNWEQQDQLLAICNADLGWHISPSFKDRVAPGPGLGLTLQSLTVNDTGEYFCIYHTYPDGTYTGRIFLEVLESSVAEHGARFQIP

B1: SCT-Ga249 (antibody, V domains shown)
VH: QVQLQQSGGELMKPGASVKISCKATGYTFSNYWIEWVKQRPGHGLEWIGEILPGSGSSYYNEKFKGRATFTADKSSNTAYMQLSSLTSEDSAVYYCARQKYGNFYYFDFWGQGTTLTVSS
VL: AIQMTQTTSSLSASLGDRVTISCSASQGIGNYLNWYQQKPDGTVKLLIYYTSSLHSGVPSRFSGSGSGTDYSLTISDLEPEDIATYYCHQYSKLPYTFGGGTKLEIK
notes: Murine variable domains
B2: SCT-Ga333 (antibody, V domains shown)
VH: QVQLQQSGAELVRPGTSVKVSCKASGYAFTNYLIEWVKQRPGQGLEWIGVINPGSGGNNYNEKFKGKATLTADKSSSTAYMQLSSLTSDDSAVYFCARRGDKYGSAWFAYWGQGTLVTVSA
VL: DIVMTQSHKFMSTSVGDRVSITCKASQDVSTAVAWYQQKPGQSPKLLIYSASYRYTGVPDRFTGSGSGTDFTFTISSVQAEDLAVYYCQQHYSSPRTFGGGTKLEIK
notes: Murine variable domains
B3: SCT-Ga001 (antibody, V domains shown)
VH: QVQLQQSGAELVRPGTSVKVSCKASGYAFTNYLIEWVKQRPGQGLEWIGVINPGSGGSKYNEKFKGKTTLTADKSSSTAYMQLSSLTSEDSAVYFCARTGVYGNFLIFDYWGQGTTLTVSS
VL: DIVLTQSPSSLSVAAGEKVTLSCKSSQSLLNSGIQKNYLAWYQQKPGQPPKLLIYGASTRESGVPDRFTGSGSGTDFTLTISSVQAEDLAVYYCQNDHRYPFTFGGGTKLEIK
notes: Murine variable domains
B4: SCT-Ga255 (antibody, V domains shown)
VH: EVKLVESGGGLVKPGGSLKLSCAASGFAFSSFDMSWVRQTPEKRLEWVAVISSGGSYTFYPDSVKGRFTISRDNARNTLYLQMSSLRSEDTALYFCTRQDYRYPYIMDYWGQGTSVTVSS
VL: DIQMNQSPSSLSASLGDTITITCHASQNINVWLSWYQQKPGNIPKLLIYKASNLHTGVPSRFSGSGSGAGFTLTISSLQPEDIATYYCQQGQSYPWTFGGGTKLEIK
notes: Murine variable domains
B5: SCT-Ga433 (antibody, V domains shown)
VH: DVKLVESGGGLVKPGGSLKLSCSASGFTFSSYTMSWVRQTPEKRLEWVATISSGGSYTYYPDSVKGRFTISRDNAKNTLYLQMSSLKSEDTAMFYCTRWLLSLYAMDYWGQGTSVTVSS
VL: B4 VL with P44S, L54F, A69T, G70N, S93T, W96F
notes: Murine variable domains
B6: SCT-Ga487 (antibody, V domains shown)
VH: QVQLQQPGAELVKPGASVKMSCKATGYTFSNYWIEWVKQTPGRGLEWIGEILPGSGSSYYNQKFKGKATLTADKSSSTAYMQLSSLTSEDSAVYYCARQKYGNFYYFDFWGAGTTVTVSA
VL: AIQMTQSPSSLSASVGDRVTITCRASQGIGNYLNWYQQKPGKAPKLLIYYTSSLHSGVPSRFSGSGSGTDYTFTISSLQPEDIATYYCHQYSKLPYTFGQGTKVEIK
B7: SCT-Ga485 (antibody, V domains shown)
VH: QVQLVQSGAEVKKPGASVKVSCKASGYAFTNYLIEWVKQAPGQGLEWIGVINPGSGGSKYNEKFKGRATITADKSTSTAYMELSSLRSEDTAVYFCARTGVYGNFLIFDYWGQGTTVTVSS
VL: DIVMTQSPDSLAVSLGERATINCKSSQSLLNSGIQKNYLAWYQQKPGQPPKLLIYGASTRESGVPDRFSGSGSGTDFTLTISSLQAEDVAVYYCQNDHRYPFTFGGGTKLEIK
B8: SCT-Ga498 (antibody, V domains shown)
VH: QVQLQQSGAEVKKPGASVKVSCKASGYAFTNYLIEWVKQAPGQGLEWIGVINPGSGGNNYNEKFKGRATITADKSTSTAYMELSSLRSEDTAVYFCARRGDKYGSAWFAYWGQGTTVTVSA
VL: B2 VL with H8Q, K9R, S14T, F73L, S77N, V78M, A80S
B9: SCT-Ga461 (antibody, V domains shown)
VH: EVQLVESGGGLVQPGGSLRLSCAASGFTFSSYTMSWVRQAPGKGLEWVATISSGGSYTYYPDSVKGRFTISRDNAKNTLYLQMNSLRAEDTAVYYCTRWLLSLYAMDYWGQGTLVTVSS
VL: AIQMTQSPSSLSASVGDRVTITCQASQNINVWLSWYQQKPGKAPKLLIYKASTLASGVPSRFSGSGSGTDFTLTISSLQPDDFATYYCQQGQTYPFTFGGGTKVEIK
B10: SCT-Ga495 (antibody, V domains shown)
VH: B4 VH with K13Q, K19R, T40A, E42G, R44G, A75S, R76K, S84N, S88A, S115L
VL: B9 VL with T93S, F96W
B11: SCT-Ga496 (antibody, V domains shown)
VH: B4 VH with K13Q, K19R, T40A, E42G, R44G, A75S, R76K, S84N, S88A, S115L
VL: B9 VL with A1D, Q24H, T93S, F96W

Each molecule was assayed against TIGIT on the engineered cell lines of the TIGIT/CD155 Blockade Bioassay (J2201, Promega) (UniProt Q495A1) (assay: cell-based or functional assay).

For MK-7684 (antibody), which Blockade EC50 is on record?
Its Blockade EC50 is 24.8 nM.

The molecules below were run against T1, TIGIT on the engineered cell lines of … (assay: cell-based or functional assay).

How did the “Blockade EC50” value turn out when B1 was run?
The value was 28.1 nM.

For B2, which “Blockade EC50” value is on record?
Its value is 42.2 nM.

With B3 as the molecule, how does the “Blockade EC50” value read?
The value was 26.6 nM.

For B4, which “Blockade EC50” value is on record?
The value was 33.4 nM.

B5 was tested. Which “Blockade EC50” value did it give?
Its value is 25.2 nM.

The molecules below were run against T2, Recombinant human TIGIT (assay: ELISA, recombinant human TIGIT coated on plate, serially diluted antibody).
Procedure: The recombinantly expressed antibodies were used to assess binding activity to TIGIT by conventional ELISA according to the known art. Recombinant human TIGIT was coated onto ELISA plates to detect binding at serially diluted concentrations of the anti-TIGIT antibody preparations (FIG. 1). Anti-TIGIT antibodies' blockade activity was assessed using engineered cell lines, kit reagents (TIGIT/CD155 Blockade Bioassay, J2201, Promega, Madison, Wis.), and a luminometer (Promega, Madison, Wis.) and the results were used to compare against benchmark antibodies with known blockade activity (FIG. 2). Similarly, these antibodies were assessed for their ability to synergize with an anti-PD-1 antibody using a PD-1+TIGIT combination bioassay (Cat. No. J2211 Promega, Madison, Wis.).

Which EC50 does the source give for B6 here?
The EC50 was 1.96 nM.

Which EC50 does the source give for B7 here?
The EC50 was 0.79 nM.

How did the EC50 turn out when B1 was run?
The EC50 was 1.22 nM.

B2 was tested. Which EC50 did it give?
Its EC50 is 1.08 nM.

With B8 as the molecule, how does the EC50 read?
The EC50 was 0.82 nM.

With B9 as the molecule, how does the EC50 read?
The EC50 was 4.55 nM.

For B3, which EC50 is on record?
Its EC50 is 5.03 nM.

How did the EC50 turn out when B4 was run?
Its EC50 is 0.96 nM.

Which EC50 does the source give for B10 here?
The EC50 was 0.69 nM.

With B5 as the molecule, how does the EC50 read?
Its EC50 is 1.1 nM.

With B11 as the molecule, how does the EC50 read?
The EC50 was 0.67 nM.
